These results are taken from patent US5362852A, “Modified peptide derivatives conjugated at 2-hydroxyethylamine moieties” (Pfizer Inc., priority 1991, dated 1994).

One test concerns the target T1, human CRF receptor (Homo sapiens, UniProt P34998).
T1 construct: human CRF receptor (prepared from cultured SK-N-SH cells); endogenous in cells; host or cells: SK-N-SH cells (human neuroblastoma), receptor preparation
T1 sequence (P34998 24-415): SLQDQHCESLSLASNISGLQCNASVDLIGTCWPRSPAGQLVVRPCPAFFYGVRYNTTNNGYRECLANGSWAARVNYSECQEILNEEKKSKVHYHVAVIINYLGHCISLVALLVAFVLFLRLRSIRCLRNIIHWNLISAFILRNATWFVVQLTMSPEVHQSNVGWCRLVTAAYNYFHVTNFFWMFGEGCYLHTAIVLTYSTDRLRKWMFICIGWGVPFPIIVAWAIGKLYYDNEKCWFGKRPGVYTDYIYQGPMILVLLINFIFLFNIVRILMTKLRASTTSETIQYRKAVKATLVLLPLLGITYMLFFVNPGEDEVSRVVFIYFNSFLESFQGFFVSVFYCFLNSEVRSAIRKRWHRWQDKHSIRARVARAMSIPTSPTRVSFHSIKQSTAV
As to the kind of experiment: ability to bind to the human CRF receptor (prepared from cultured SK-N-SH cells). Type of test: binding. The settings on record: products dissolved in 0.05M sodium phosphate, pH 7.0. The method, then:
The products were dissolved in 0.05M sodium phosphate, pH 7.0, and tested for their ability to bind to the human CRF receptor (prepared from cultured SK-N-SH cells).

Test [1] addresses human CRF receptor (human). As to the kind of experiment: receptor binding assay on human CRF receptor prepared from cultured SK-N-SH cells.

Take `CC[C@H](C)[C@H](NC(=O)[C@H](CC(=O)O)NC(=O)[C@H](CC(C)C)NC(=O)[C@H](CC(C)C)NC(=O)[C@H](CCCCN)NC(=O)[C@H](CCCNC(=N)N)NC(=O)[C@H](CC(N)=O)NC(=O)[C@H](CO)NC(=O)[C@H](Cc1c[nH]cn1)NC(=O)[C@H](C)NC(=O)[C@H](CCC(N)=O)NC(=O)[C@H](CCC(N)=O)NC(=O)[C@H](C)NC(=O)[C@H](CC(C)C)NC(=O)[C@H](CCC(N)=O)NC(=O)[C@H](CC(=O)O)NC(=O)[C@H](C)NC(=O)[C@H](CCCCN)NC(=O)[C@@H](NC(=O)[C@H](CC[S+](C)[O-])NC(=O)[C@H](CCC(=O)O)NC(=O)[C@H](CC(C)C)NC(=O)[C@@H](NC(=O)[C@H](CCC(=O)O)NC(=O)[C@H](CCCNC(=N)N)NC(=O)[C@H](CC(C)C)NC(=O)[C@H](CC(C)C)NC(=O)[C@H](Cc1c[nH]cn1)NC(=O)[C@H](Cc1ccccc1)NC(=O)[C@@H](NC(=O)[C@H](CC(C)C)NC(=O)[C@H](CC(=O)O)NC(=O)[C@H](CC(C)C)NC(=O)[C@H](CO)NC(=O)[C@@H](NC(=O)[C@@H]1CCCN1C(=O)[C@@H]1CCCN1C(=O)[C@H](CCC(=O)O)NC(=O)[C@H](CCC(N)=O)NC(=O)[C@@H](N)CO)[C@@H](C)CC)[C@@H](C)O)C(C)C)[C@@H](C)O)C(=O)N[C@@H](C)C(N)=O` (stereo partly shown) [CRF [Met^21 O]]: the IC50 against human CRF receptor amounted to 5 nM. Consider underivatized CRF [Met^21 O], for which, in test [1], the IC50 was 5 nM.

B1: N-terminally biotinylated ovine CRF [Met^21 O] (peptide)
peptide: SQEPPISLDLTFHLLREVLEXTKADQLAQQAHSNRKLLDIA
modifications: N-terminal Ser oxidised by periodate to glyoxylyl (=CH-CO-) and coupled as hydrazone to 6-((biotinoyl)amino)caproic acid hydrazide (biotin-X-hydrazide); Met 21 as the sulfoxide (Met^21 O)
B1 came in with an IC50 in test [1] of 5 nM.

B2: Lucifer Yellow conjugate of ovine CRF [Met^21 O] (peptide)
peptide: B1 peptide
modifications: N-terminal Ser oxidised by periodate to glyoxylyl (=CH-CO-) and coupled as hydrazone to Lucifer Yellow; Met 21 as the sulfoxide (Met^21 O)
In turn, B2 yielded an IC50 in test [1] of 5 nM.

As usually defined, the IC50 is the concentration that gives 50% inhibition.
